Test results from patent publication US11976099B2, “Compositions and methods for treatment of bone associated diseases” (THE NATIONAL INSTITUTE FOR BIOTECHNOLOGY IN THE NEGEV LTD., priority 2016, dated 2024).

Tests used:
c-FMS and αvβ3 integrin = experiment: YSD binding of M-CSFRGD variants to c-FMS and αvβ3 integrin, alone and simultaneously; parameters: species or system human
Experimental: For expressing the M-CSFM gene and the two M-CSFRGD libraries on the yeast surface, the SDCAA medium was replaced by SGCAA medium (2% galactose, 0.67% yeast nitrogen base, 0.5% bacto casamino acids, 1.47% sodium citrate, 0.429% citric acid monohydrate) and the yeasts were incubated overnight at 30° C. until the culture reached OD600=10.0 (10^8 cells per ml). A number of cells equal to ten times the library size was added to 1 ml of PBS containing 1% bovine serum albumin (PBSA); the suspension was centrifuged, and the supernatant was removed. For binding analysis of M-CSFM and the M-CSFRGD libraries to c-FMS, yeast cells were incubated with mouse anti c-myc antibody, 9E10 (Abcam, Cambridge, MA, USA) in a 1:50 ratio and different concentrations of soluble Fc conjugated human c-FMS (R&D systems, USA) for 1 h at room temperature. […]
To identify the high αvβ3 integrin and c-FMS binders, 25 different clones from sort 4 and 25 different clones from sort 5 were tested for binding to 20 nM of αvβ3 integrin, as described in the flow cytometry sorting section. […] To determine the binding specificity to other RGD binding integrins, namely α4β7, […], α5β1 and αvβ5 (BioLegend, USA), the three chosen M-CSFRGD variants (4.22, 4.24 and 5.6) were analyzed for binding to 250 nM of each integrin. […]

c-kit receptor = c-kit receptor (Homo sapiens, UniProt P10721); experiment: YSD binding specificity test against c-kit receptor; conditions: even at high concentrations of 200 nM; data not shown
Experimental: Next, a binding specificity of the M-CSFM to c-FMS was evaluated. For this purpose, the ability of M-CSFM to bind a c-kit receptor, which is a c-FMS structural homolog, was utilized.

Chain of c-kit receptor (P10721 26-976): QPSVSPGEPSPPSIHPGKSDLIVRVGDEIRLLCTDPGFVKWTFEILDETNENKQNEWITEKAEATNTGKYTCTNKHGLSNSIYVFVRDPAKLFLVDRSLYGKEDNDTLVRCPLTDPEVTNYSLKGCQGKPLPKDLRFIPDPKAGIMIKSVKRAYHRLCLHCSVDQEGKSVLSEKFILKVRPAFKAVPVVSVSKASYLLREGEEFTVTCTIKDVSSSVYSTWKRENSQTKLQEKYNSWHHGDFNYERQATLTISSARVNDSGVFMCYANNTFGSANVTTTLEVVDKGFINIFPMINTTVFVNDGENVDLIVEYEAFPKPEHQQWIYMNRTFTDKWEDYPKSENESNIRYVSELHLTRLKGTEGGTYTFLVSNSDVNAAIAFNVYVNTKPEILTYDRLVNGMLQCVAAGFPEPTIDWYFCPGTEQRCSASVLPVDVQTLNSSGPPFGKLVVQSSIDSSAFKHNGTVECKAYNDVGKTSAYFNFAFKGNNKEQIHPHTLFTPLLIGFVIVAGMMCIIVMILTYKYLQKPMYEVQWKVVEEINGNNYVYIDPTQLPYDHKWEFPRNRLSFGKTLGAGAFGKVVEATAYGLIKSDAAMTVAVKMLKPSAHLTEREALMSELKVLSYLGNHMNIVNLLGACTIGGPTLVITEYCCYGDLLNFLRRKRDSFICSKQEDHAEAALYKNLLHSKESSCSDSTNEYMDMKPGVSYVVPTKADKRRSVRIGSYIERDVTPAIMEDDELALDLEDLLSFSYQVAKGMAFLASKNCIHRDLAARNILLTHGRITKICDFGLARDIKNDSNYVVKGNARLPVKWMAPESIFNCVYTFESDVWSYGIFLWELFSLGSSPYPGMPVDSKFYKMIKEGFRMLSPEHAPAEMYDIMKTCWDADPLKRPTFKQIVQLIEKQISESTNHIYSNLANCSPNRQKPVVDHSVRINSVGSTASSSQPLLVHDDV

B1: 5.6: bispecific M-CSFRGD variant from sort five; M-CSFM loop replaced by XXXRGDXXX motif; binds c-FMS and αvβ3 integrin (protein)
chain: EEVSEYCSHMIGSGHLQSLQRLIDTYPRGDMCSITFEFVDQEQLKDPVCYLKKAFLLVQDIMEDTMRFRDNTPNAIAIVQLQELSLRLKSCFTKDYEEHDKACVRTFYETPLQLLEKVKNVFNETKNLLDKDWNIFSKNCNNSFAECSSQGHERQSEGS
modifications: left off: small tags and cut ends
relative affinity for c-FMS and αvβ3 integrin (c-FMS and αvβ3 integrin): higher affinity for c-FMS than for αvβ3 integrin
simultaneous binding of c-FMS and αvβ3 integrin (c-FMS and αvβ3 integrin; data not shown): could simultaneously bind c-FMS and αvβ3 integrin

B2: M-CSFM: 158 amino acid M-CSF with cysteine at position 31 replaced by serine (SEQ ID NO: 2) (protein)
chain: EEVSEYCSHMIGSGHLQSLQRLIDSQMETSSQITFEFVDQEQLKDPVCYLKKAFLLVQDIMEDTMRFRDNTPNAIAIVQLQELSLRLKSCFTKDYEEHDKACVRTFYETPLQLLEKVKNVFNETKNLLDKDWNIFSKNCNNSFAECSSQGHERQSEGS
binding to c-kit receptor (c-kit receptor): did not bind
